The results in this text go back to patent US20200347144A1.

The target of assay [1] is OX40. As to the kind of experiment: ELISA, coated OX40; Ab concentration not given.
Assay [2] addresses monkey 4-1BB-his protein (monkey). As to the kind of experiment: ELISA, coated monkey 4-1BB-his; Ab 0.4 ug/ml. (An ELISA detects its analyte on a solid surface through an enzyme-linked reagent.)
Assay [3] concerns the target hFc-tagged human 4-1BB extracellular domain protein (4-1BB-hFc) (human) (UniProt Q07011). Briefly: ELISA, coated 4-1BB; Ab concentration not given.
The target of assay [4] is monkey 4-1BB-his protein (monkey). As to the kind of experiment: ELISA, coated monkey 4-1BB-his; Ab 0.0006 ug/ml.
Assay [5] has as its target GITR. Briefly: ELISA, coated GITR; Ab concentration not given.
For assay [6], the target named is monkey 4-1BB-his protein (monkey). Briefly: ELISA, coated monkey 4-1BB-his; Ab 2 ug/ml.
Assay [7] has the same target. As to the kind of experiment: ELISA, coated monkey 4-1BB-his; Ab 0.08 ug/ml.
Assay [8] has the same target. Briefly: ELISA, coated monkey 4-1BB-his; Ab 0.016 ug/ml.
For assay [9] the target is unchanged. Briefly: ELISA, coated monkey 4-1BB-his; Ab 0.0032 ug/ml.
Assay [10] has the same target. Briefly: ELISA, coated monkey 4-1BB-his; Ab 10 ug/ml.
For assay [11] the target is unchanged. Briefly: ELISA, coated monkey 4-1BB-his; Ab 0.0001 ug/ml.

Sequence of OX40 (P43489 29-214): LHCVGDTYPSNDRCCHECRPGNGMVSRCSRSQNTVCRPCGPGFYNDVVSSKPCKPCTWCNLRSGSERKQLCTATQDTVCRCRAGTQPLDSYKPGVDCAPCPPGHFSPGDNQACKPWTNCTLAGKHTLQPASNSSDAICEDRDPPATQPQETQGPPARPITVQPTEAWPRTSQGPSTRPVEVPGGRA
Sequence of hFc-tagged human 4-1BB extracellular domain protein (4-1BB-hFc) (human) (Q07011 24-186 limits assumed): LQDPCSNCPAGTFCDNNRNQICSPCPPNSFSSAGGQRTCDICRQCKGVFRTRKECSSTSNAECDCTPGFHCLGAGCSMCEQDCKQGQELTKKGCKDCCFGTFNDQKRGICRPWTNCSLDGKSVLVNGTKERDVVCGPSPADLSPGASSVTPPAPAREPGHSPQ
Sequence of GITR (Q9Y5U5 26-162): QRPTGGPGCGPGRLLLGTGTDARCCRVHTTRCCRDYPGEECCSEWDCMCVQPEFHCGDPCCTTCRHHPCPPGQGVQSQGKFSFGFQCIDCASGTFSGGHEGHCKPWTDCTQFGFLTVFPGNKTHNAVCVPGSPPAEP

As to IgG control (human IgG) (antibody), the OD450 nm in assay [1] amounted to 0.32 OD450 nm; in [2], 0.07 OD450 nm; in assay [3], 0.36 OD450 nm; in [4], 0.07 OD450 nm; in [5], 0.24 OD450 nm; in [6] it was 0.07 OD450 nm. Also, the OD450 nm in assay [7], in [8], in assay [9], in [10] and in [11] was 0.07 OD450 nm throughout.
